The values below come from article PMC11417369, “DNA sequence and chromatin differentiate sequence-specific transcription factor binding in the human malaria parasite Plasmodium falciparum”.

In the data set the target is T1, HDP1 homeodomain-like (Plasmodium falciparum, UniProt Q8IKH4 2990-3078).
T1 sequence: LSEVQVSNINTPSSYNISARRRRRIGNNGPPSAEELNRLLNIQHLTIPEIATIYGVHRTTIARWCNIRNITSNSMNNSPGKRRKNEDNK
Kind of data set: gcPBM; about 25 ug protein; PBS, 1% milk, 0.2 mg/ml BSA, salmon testes DNA, 0.03% Triton X-100. The conditions noted are these: tags: N-terminal GST (pGEX-4T-1), kept; chain copies: 2; label: surface-attached array probe.

B1: GTGCAC_site10546 (dsDNA)
DNA 1: ATGAAATATTTATTTGTGCACTTAATTTGTTGGAAA
DNA 2: TTTCCAACAAATTAAGTGCACAAATAAATATTTCAT
As to B1, the binding signal is 9.86 ln median PBM intensity, better of two orientations.

B2: GTGCAC_site9646 (dsDNA)
DNA 1: TGTATATATATCTCAGTGCATTGCAAATTAAAAATT
DNA 2: AATTTTTAATTTGCAATGCACTGAGATATATATACA
In the case of B2, the binding signal is 9.68 ln median PBM intensity, better of two orientations.

B3: GTGCAC_site10231 (dsDNA)
DNA 1: TTCCAAGAAATAATAGTGCATTATTCATTTTAATAA
DNA 2: TTATTAAAATGAATAATGCACTATTATTTCTTGGAA
Consider B3, for which the binding signal was 9.61 ln median PBM intensity, better of two orientations.

B4: GTGCAC_site10319 (dsDNA)
DNA 1: TCATTTTAAATATGTGTGCACGTTATAATTTACACA
DNA 2: TGTGTAAATTATAACGTGCACACATATTTAAAATGA
Turning to B4, the binding signal is 9.66 ln median PBM intensity, better of two orientations.

B5: GTGCAC_site10106 (dsDNA)
DNA 1: ATATTTTATATATTTGTGCACAATATTATAATATAT
DNA 2: ATATATTATAATATTGTGCACAAATATATAAAATAT
As to B5, the binding signal is 10.8 ln median PBM intensity, better of two orientations.

B6: GTGCAC_site9715 (dsDNA)
DNA 1: TTTTTTAAATTGGTAGTGCAATATGATTGAACAAAA
DNA 2: TTTTGTTCAATCATATTGCACTACCAATTTAAAAAA
Consider B6, for which the binding signal is 9.52 ln median PBM intensity, better of two orientations.

B7: GTGCAC_site10676 (dsDNA)
DNA 1: TTTTGTTATTTTTTAGTGCATATAAAGGTTGTTAAG
DNA 2: CTTAACAACCTTTATATGCACTAAAAAATAACAAAA
Turning to B7, the binding signal is 9.65 ln median PBM intensity, better of two orientations.

B8: GTGCAC_site9492 (dsDNA)
DNA 1: GTCAACAAGAATTAAGTGCATAATTTTTTATTAAAT
DNA 2: ATTTAATAAAAAATTATGCACTTAATTCTTGTTGAC
As for B8, the binding signal was 9.67 ln median PBM intensity, better of two orientations.

B9: GTGCAC_site10104 (dsDNA)
DNA 1: CTTATAAGAATACTAGTGCACATAATTTAACGAAAA
DNA 2: TTTTCGTTAAATTATGTGCACTAGTATTCTTATAAG
Consider B9, for which the binding signal was 10 ln median PBM intensity, better of two orientations.

B10: GTGCAC_site10156 (dsDNA)
DNA 1: ACCATATAAAGTTAGGTGCATTTGTATGTATCTTAC
DNA 2: GTAAGATACATACAAATGCACCTAACTTTATATGGT
Take B10: the binding signal is 9.55 ln median PBM intensity, better of two orientations.

B11: GTGCAC_site9397 (dsDNA)
DNA 1: TGTGTTAGCAAAAAAGTGCACAGGGAAAAAAAAATA
DNA 2: TATTTTTTTTTCCCTGTGCACTTTTTTGCTAACACA
Turning to B11, the binding signal is 9.59 ln median PBM intensity, better of two orientations.

B12: GTGCAC_site10120 (dsDNA)
DNA 1: AAAAACAAACTGTGCATGCACCAAAAAAAAAAAAAA
DNA 2: TTTTTTTTTTTTTTGGTGCATGCACAGTTTGTTTTT
On to B12, for which the binding signal is 10.3 ln median PBM intensity, better of two orientations.

B13: GTGCAC_site10425 (dsDNA)
DNA 1: CATGAGGTATAAAAGGTGCAAATTAATGAGAACATT
DNA 2: AATGTTCTCATTAATTTGCACCTTTTATACCTCATG
Consider B13, for which the binding signal is 9.91 ln median PBM intensity, better of two orientations.

B14: GTGCAC_site9948 (dsDNA)
DNA 1: CTTAAATTAATTTGGGTGCATATATTTGTACACATT
DNA 2: AATGTGTACAAATATATGCACCCAAATTAATTTAAG
For B14, the binding signal is 9.77 ln median PBM intensity, better of two orientations.

B15: GTGCAC_site9469 (dsDNA)
DNA 1: ACAAAAAAAAACGTGGTGCATTAATAATATTGTATA
DNA 2: TATACAATATTATTAATGCACCACGTTTTTTTTTGT
On to B15, for which the binding signal was 9.75 ln median PBM intensity, better of two orientations.

B16: GTGCAC_site10762 (dsDNA)
DNA 1: TGTAAAATATAAAAAGTGCATTTCTTTTAATATGAT
DNA 2: ATCATATTAAAAGAAATGCACTTTTTATATTTTACA
Take B16: the binding signal was 7.62 ln median PBM intensity, better of two orientations.

B17: GTGCAC_site10212 (dsDNA)
DNA 1: TATATATATATATATGTGCACATATATATGATATTA
DNA 2: TAATATCATATATATGTGCACATATATATATATATA
As for B17, the binding signal is 10.3 ln median PBM intensity, better of two orientations.

B18: GTGCAC_site10461 (dsDNA)
DNA 1: TTTATACATACATTCGTGCACATACGTATAACATAT
DNA 2: ATATGTTATACGTATGTGCACGAATGTATGTATAAA
On to B18, for which the binding signal was 10.1 ln median PBM intensity, better of two orientations.

B19: GTGCAC_site10307 (dsDNA)
DNA 1: AAATAATTAGAAATAGTGCACATAATTAAGGGATAC
DNA 2: GTATCCCTTAATTATGTGCACTATTTCTAATTATTT
On to B19, for which the binding signal was 10.9 ln median PBM intensity, better of two orientations.

B20: GTGCAC_site9450 (dsDNA)
DNA 1: ATAACAAAATGAAGAGTGCATTACCAAGTGGGTAAA
DNA 2: TTTACCCACTTGGTAATGCACTCTTCATTTTGTTAT
Consider B20, for which the binding signal is 7.77 ln median PBM intensity, better of two orientations.

B21: GTGCAC_site10725 (dsDNA)
DNA 1: TTTTGTTATTTTGAAGTGCACTTTCCACTTAATATA
DNA 2: TATATTAAGTGGAAAGTGCACTTCAAAATAACAAAA
With B21, the binding signal is 10.7 ln median PBM intensity, better of two orientations.

B22: GTGCAC_site10550 (dsDNA)
DNA 1: TAAACGTTAGTATGTGTGCACATTAGTAATTTAAAA
DNA 2: TTTTAAATTACTAATGTGCACACATACTAACGTTTA
In the case of B22, the binding signal is 10.6 ln median PBM intensity, better of two orientations.

B23: GTGCAC_site9637 (dsDNA)
DNA 1: GGAAAATATGTTTGTGTGCACAGCTAGCTATTTGTA
DNA 2: TACAAATAGCTAGCTGTGCACACAAACATATTTTCC
Turning to B23, the binding signal was 11 ln median PBM intensity, better of two orientations.

B24: GTGCAC_site9886 (dsDNA)
DNA 1: ATTTATTTATATTTAGTGCAATACTATTTTTAAATA
DNA 2: TATTTAAAAATAGTATTGCACTAAATATAAATAAAT
As for B24, the binding signal is 9.95 ln median PBM intensity, better of two orientations.

B25: GTGCAC_site10696 (dsDNA)
DNA 1: AATGACTACATAATAGTGCAATATTAAAGAAAATTA
DNA 2: TAATTTTCTTTAATATTGCACTATTATGTAGTCATT
As for B25, the binding signal was 10.4 ln median PBM intensity, better of two orientations.

B26: GTGCAC_site9435 (dsDNA)
DNA 1: ATATTTTGTTTTATAGTGCACATGGGCATATATTAA
DNA 2: TTAATATATGCCCATGTGCACTATAAAACAAAATAT
B26: the binding signal is 9.71 ln median PBM intensity, better of two orientations.

B27: GTGCAC_site10060 (dsDNA)
DNA 1: TCTTTTTCTTCTTATGTGCACATCAATTATGCTTCT
DNA 2: AGAAGCATAATTGATGTGCACATAAGAAGAAAAAGA
Take B27: the binding signal is 10.8 ln median PBM intensity, better of two orientations.

B28: GTGCAC_site10399 (dsDNA)
DNA 1: CATATTATTATTTTGGTGCATACTTATATATATTTT
DNA 2: AAAATATATATAAGTATGCACCAAAATAATAATATG
Take B28: the binding signal was 9.47 ln median PBM intensity, better of two orientations.

B29: GTGCAC_site10605 (dsDNA)
DNA 1: GAAGTAGATGGAAAAGTGCACTGTAATGGTTATATT
DNA 2: AATATAACCATTACAGTGCACTTTTCCATCTACTTC
B29: the binding signal is 10.6 ln median PBM intensity, better of two orientations.

B30: GTGCAC_site10269 (dsDNA)
DNA 1: TGTGTATATATGCTGGTGCAACTTTAAAAAATAATC
DNA 2: GATTATTTTTTAAAGTTGCACCAGCATATATACACA
On to B30, for which the binding signal was 9.48 ln median PBM intensity, better of two orientations.

B31: GTGCAC_site10596 (dsDNA)
DNA 1: AAAATTTATAGTATGGTGCATAAAAATATATATATA
DNA 2: TATATATATATTTTTATGCACCATACTATAAATTTT
With B31, the binding signal is 10.6 ln median PBM intensity, better of two orientations.

B32: GTGCAC_site9634 (dsDNA)
DNA 1: AAATTGAGACAACAGGTGCATATAAATATACAGTGT
DNA 2: ACACTGTATATTTATATGCACCTGTTGTCTCAATTT
Take B32: the binding signal was 9.49 ln median PBM intensity, better of two orientations.

B33: GTGCAC_site10480 (dsDNA)
DNA 1: GGTATTTATGGACGCGTGCACACACATATGAACAAA
DNA 2: TTTGTTCATATGTGTGTGCACGCGTCCATAAATACC
With B33, the binding signal is 10.4 ln median PBM intensity, better of two orientations.

B34: GTGCAC_site10127 (dsDNA)
DNA 1: ACATATAAATATTGTGTGCACACACATAATATATAT
DNA 2: ATATATATTATGTGTGTGCACACAATATTTATATGT
As to B34, the binding signal is 10.5 ln median PBM intensity, better of two orientations.

B35: GTGCAC_site9657 (dsDNA)
DNA 1: CATAATTTAAAAAAGGTGCAAAATGGATAATATATA
DNA 2: TATATATTATCCATTTTGCACCTTTTTTAAATTATG
For B35, the binding signal was 10.1 ln median PBM intensity, better of two orientations.

B36: GTGCAC_site9631 (dsDNA)
DNA 1: AAAAATAATCATTAGGTGCAAAAAATATATATATAT
DNA 2: ATATATATATATTTTTTGCACCTAATGATTATTTTT
Regarding B36, the binding signal was 9.83 ln median PBM intensity, better of two orientations.

B37: GTGCAC_site10384 (dsDNA)
DNA 1: TTTTCTTGGTTCAGTGTGCACTTATATATATATATA
DNA 2: TATATATATATATAAGTGCACACTGAACCAAGAAAA
Consider B37, for which the binding signal is 10.2 ln median PBM intensity, better of two orientations.

B38: GTGCAC_site9497 (dsDNA)
DNA 1: TAATTGAGCAAATGAGTGCACAGCATAAAGTATAGT
DNA 2: ACTATACTTTATGCTGTGCACTCATTTGCTCAATTA
As to B38, the binding signal was 10.7 ln median PBM intensity, better of two orientations.

B39: GTGCAC_site10288 (dsDNA)
DNA 1: ATAGATCCTAATGTTGTGCACATGTAAATTAATATA
DNA 2: TATATTAATTTACATGTGCACAACATTAGGATCTAT
With B39, the binding signal was 11 ln median PBM intensity, better of two orientations.

B40: GTGCAC_site9416 (dsDNA)
DNA 1: TTTCAAAAAAATAATGTGCACATTAGAAAATAAATA
DNA 2: TATTTATTTTCTAATGTGCACATTATTTTTTTGAAA
In the case of B40, the binding signal was 10.5 ln median PBM intensity, better of two orientations.

B41: GTGCAC_site10318 (dsDNA)
DNA 1: ATATATATATATATAGTGCAAATATCTTCTTTATAA
DNA 2: TTATAAAGAAGATATTTGCACTATATATATATATAT
For the molecule B41, the binding signal was 9.8 ln median PBM intensity, better of two orientations.
